From publication PMC4113483 come the findings set out here.

For this test, the target named is Mu-HSSKLQ-AMC (morpholinocarbonyl-His-Ser-Ser-Lys-Leu-Gln-7-amido-4-methylcoumarin), fluorogenic PSA substrate. Kind of test: Spectrofluorimetric pre-steady-state (burst) and steady-state kinetics of AMC release (excitation 380 nm, emission 460 nm). The following applies: 37.0 C, 100 mM NaCl, 10 mM CaCl2, 25 mM bis-tris-HCl and 25 mM tris-HCl between pH 6.5 and 9.0 (the buffer used at each pH is not stated).

Take “Prostate-specific antigen (PSA, kallikrein-related peptidase 3, KLK3)”: the pKES1, group 1 of PSA (unassigned; tentatively Lys95E of the kallikrein loop) (pH 6.5-9.0) worked out at 8.59 pH units. This substance also had a pKES2, group 2 of PSA (unassigned; tentatively a histidine, possibly His57 or His172) (pH 6.5-9.0) of 5.11 pH units. Where the note is “pH 6.5-9.0”, the pKU1, group 1 of PSA (unassigned; tentatively Lys95E of the kallikrein loop) came out at 8.02 pH units. Also, for the setting “pH 6.5-9.0”, the pKU2, group 2 of PSA (unassigned; tentatively a histidine, possibly His57 or His172) was found to be 7.61 pH units. The Ks by setting is: (pH 6.5) 490 µM; (pH 7.0) 120 µM; (pH 7.5) 62 µM; (pH 8.0) 42 µM; (pH 8.5) 55 µM; (pH 9.0) 75 µM.
